# According to US20150150950:
# How the values were obtained:
# [1] = tested on: inactive wildtype GST-GSK3β (K^84A kinase inactivating mutation)
# [2] = tested on: purified active wildtype GST-GSK3β
# [3] = tested on: GST-GSK3β T^390A/T^43A double mutant (kinase inactive, K^84A)
# [4] = tested on: Recombinant kinase-active GSK3α
# [5] = tested on: GST-GSK3α (Cell Signaling, boiled to inactivate)
# [6] = tested on: GST-GSK3β T^43A mutant (kinase inactive, K^84A)
# [7] = tested on: GST-GSK3β T^390A mutant (kinase inactive, K^84A)
# [8] = tested on: active GST-GSK3β-T^43A mutant
# [9] = tested on: active GST-GSK3β-T^390A mutant
# Sequence of purified recombinant active p38 MAPK (Cell Signaling) (Q16539 2-360): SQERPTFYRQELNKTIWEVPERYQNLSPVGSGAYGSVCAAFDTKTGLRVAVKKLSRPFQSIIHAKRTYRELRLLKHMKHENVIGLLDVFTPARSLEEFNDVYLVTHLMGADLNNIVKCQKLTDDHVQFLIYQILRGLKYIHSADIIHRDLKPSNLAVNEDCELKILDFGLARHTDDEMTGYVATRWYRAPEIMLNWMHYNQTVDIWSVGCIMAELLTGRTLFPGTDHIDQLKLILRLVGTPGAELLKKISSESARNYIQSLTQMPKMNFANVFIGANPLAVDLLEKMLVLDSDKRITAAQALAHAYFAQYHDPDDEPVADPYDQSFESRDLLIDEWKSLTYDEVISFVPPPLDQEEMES
# Sequence of p38 MAPK in 293T cells (Q16539 2-360): as above
# Sequence of Recombinant kinase-active GSK3α (P49840 2-483): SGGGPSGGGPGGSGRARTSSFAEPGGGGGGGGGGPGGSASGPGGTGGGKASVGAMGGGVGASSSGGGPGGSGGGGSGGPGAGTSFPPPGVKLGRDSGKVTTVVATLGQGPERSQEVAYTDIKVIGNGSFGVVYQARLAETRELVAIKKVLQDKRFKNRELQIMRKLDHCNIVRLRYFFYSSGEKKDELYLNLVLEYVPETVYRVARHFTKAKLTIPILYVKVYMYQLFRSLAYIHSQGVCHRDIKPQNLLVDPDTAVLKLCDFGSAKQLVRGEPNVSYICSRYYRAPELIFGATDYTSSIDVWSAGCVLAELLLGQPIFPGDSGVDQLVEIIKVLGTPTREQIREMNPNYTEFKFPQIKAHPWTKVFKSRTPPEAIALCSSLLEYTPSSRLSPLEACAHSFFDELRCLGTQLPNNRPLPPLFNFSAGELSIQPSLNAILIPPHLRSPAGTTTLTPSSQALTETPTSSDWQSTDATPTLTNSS
substance,measurement,setting,value
p38 MAPK in 293T cells,in vitro p38 MAP kinase assay (^32P incorporation into GSK3β),[1],p38 MAPK immunoprecipitated from MKK6 thymocytes or MKK6-transfected 293T cells phosphorylated recombinant catalytically-inactive GSK3β in vitro and this phosphorylation was blocked by the p38 MAPK inhibitor
purified recombinant active p38 MAPK (Cell Signaling),"GSK3β activity (in vitro kinase assay, GSM substrate peptide) after preincubation with p38 MAPK",[2],p38 MAPK inhibited both wild-type GSK3β and GSK3β-T^43A mutant
same,in vitro kinase assay (^32P incorporation),[3],phosphorylation of the GSK3β-T^43A/T^390A mutant was abrogated
same,"GSK3α activity (in vitro kinase assay, GSM substrate peptide) after preincubation with p38 MAPK",[4],p38 MAPK did not affect the activity of GSK3α
same,in vitro kinase assay (^32P incorporation into GSK3α),[5],GSK3α was not phosphorylated by recombinant p38 MAPK in vitro
same,in vitro kinase assay (^32P incorporation into GSK3β),[1],A purified recombinant activated p38 MAPK also phosphorylated GSK3β in vitro and this phosphorylation was blocked by SB203580
same,in vitro kinase assay (^32P incorporation),[6],p38 MAPK was still able to partially phosphorylate a GSK3β-T^43A mutant
same,in vitro kinase assay (^32P incorporation),[7],Phosphorylation of the GSK3β-T^390A mutant by p38 MAPK was partially reduced but not abrogated
same,"GSK3β activity (in vitro kinase assay, GSM substrate peptide) after preincubation with p38 MAPK",[8],p38 MAPK inhibited both wild-type GSK3β and GSK3β-T^43A mutant
recombinant active Akt (Cell Signaling),"GSK3β activity (in vitro kinase assay, GSM substrate peptide) after preincubation with Akt",[2],Akt inhibited wild-type GSK3β and the two mutants
same,"GSK3β activity (in vitro kinase assay, GSM substrate peptide) after preincubation with Akt",[9],Akt inhibited wild-type GSK3β and the two mutants
same,"GSK3β activity (in vitro kinase assay, GSM substrate peptide) after preincubation with Akt",[8],Akt inhibited wild-type GSK3β and the two mutants
recombinant active ERK (Cell Signaling),in vitro kinase assay (^32P incorporation),[6],The T^43A mutation but not the T^390A mutation abrogated phosphorylation of GSK3β by ERK
same,in vitro kinase assay (^32P incorporation),[7],The T^43A mutation but not the T^390A mutation abrogated phosphorylation of GSK3β by ERK
